In paper PMC9352680, “A comprehensive thermodynamic model for RNA binding by the Saccharomyces cerevisiae Pumilio protein PUF4”:
Substitutions are numbered along the chain they refer to. Names and notes keep the numbering of the source.

Molecular target: T1, PUF4 RNA-binding domain (Saccharomyces cerevisiae, UniProt P25339 537-888)
T1 sequence: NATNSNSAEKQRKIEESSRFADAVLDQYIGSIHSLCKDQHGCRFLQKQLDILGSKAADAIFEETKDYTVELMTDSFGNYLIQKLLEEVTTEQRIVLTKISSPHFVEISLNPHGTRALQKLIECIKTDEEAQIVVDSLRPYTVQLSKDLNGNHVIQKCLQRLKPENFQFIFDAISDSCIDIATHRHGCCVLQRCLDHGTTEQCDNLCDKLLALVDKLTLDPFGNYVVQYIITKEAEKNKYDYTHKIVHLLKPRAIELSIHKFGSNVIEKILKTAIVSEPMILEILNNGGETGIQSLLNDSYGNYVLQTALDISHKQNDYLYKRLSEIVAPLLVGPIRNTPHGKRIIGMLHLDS
Assay: Mg; RNA-MaP; 20 mM Na-HEPES pH 7.4, 30 mM KOAc, 0.75 mM MgCl2, 0.1% Tween-20, 5% glycerol, 0.1 mg/mL BSA, 2 mM DTT; 25 C; 0.0125-409.6 nM protein
Details: tags: N-His6-TEV cleaved; C-SNAP kept, Cy3B-labelled; label: tethered on chip by stalled RNA polymerase

B1: Ib_S2_P5E.1_K5.1_C5.1_H5.1_[G2A]_A5.1_F5.1_[A10C]_T5.1 (ssRNA)
RNA: UUUGAUUAAUAUGAUAUCGUUCUUUCUUAUAUUAUUCUUCUUUCUCGAUAUCAUAUUAAUCUUU
Kd: 0.294 µM

B2: Ib_S2_P5E.1_K5.1_C5.1_H5.1_[G2C]_A5.1_F5.1_[A10T]_T5.1 (ssRNA)
RNA: B1 RNA with A29C, C37U
Kd: 1.7 µM

B3: Ia_S2_P5E.1_K5.1_C5.1_H5.1_A5.1_F5.1_[T8G]_T5.1 (ssRNA)
RNA: B1 RNA with A29G, U35G, C37A
Kd: 0.0268 µM

B4: Ib_S2_P5E.1_K5.1_C5.1_H5.1_[G2A]_A5.1_F5.1_[A10T]_T5.1 (ssRNA)
RNA: B1 RNA with C37U
Kd: 0.137 µM

B5: Ib_S2_P5E.1_K5.1_C5.1_H5.1_[T3C]_A5.1_F5.1_[A10T]_T5.1 (ssRNA)
RNA: B1 RNA with A29G, U30C, C37U
Kd: 2.02 µM

B6: Ib_S2_P5E.1_K5.1_C5.1_H5.1_[A4G]_A5.1_F5.1_[A10C]_T5.1 (ssRNA)
RNA: B1 RNA with A29G, A31G
Kd: 0.106 µM

B7: Ib_S2_P5E.1_K5.1_C5.1_H5.1_[A4C]_A5.1_F5.1_[A10C]_T5.1 (ssRNA)
RNA: B1 RNA with A29G, A31C
Kd: 0.572 µM

B8: Ib_S2_P5E.1_K5.1_C5.1_H5.1_[A4C]_A5.1_F5.1_[A10T]_T5.1 (ssRNA)
RNA: B1 RNA with A29G, A31C, C37U
Kd: 0.179 µM

B9: Ib_S2_P5E.1_K5.1_C5.1_H5.1_A5.1_[T5G]_F5.1_[T8C]_T5.1 (ssRNA)
RNA: B1 RNA with A29G, U32G, U35C, C37A
Kd: 0.0129 µM

B10: Ib_S2_P5E.1_K5.1_C5.1_H5.1_A5.1_[T5C]_F5.1_[T8C]_T5.1 (ssRNA)
RNA: B1 RNA with A29G, U32C, U35C, C37A
Kd: 0.00286 µM

B11: Ib_S2_P5E.1_K5.1_C5.1_H5.1_A5.1_[T5A]_F5.1_[T8C]_T5.1 (ssRNA)
RNA: B1 RNA with A29G, U32A, U35C, C37A
Kd: 0.00773 µM

B12: Ib_S2_P5E.1_K5.1_C5.1_H5.1_A5.1_[T5G]_F5.1_[T8A]_T5.1 (ssRNA)
RNA: B1 RNA with A29G, U32G, U35A, C37A
Kd: 0.0314 µM

B13: Ib_S2_P5E.1_K5.1_C5.1_H5.1_A5.1_[T5C]_F5.1_[T8A]_T5.1 (ssRNA)
RNA: B1 RNA with A29G, U32C, U35A, C37A
Kd: 0.00442 µM

B14: Ia_S2_P5E.1_K5.1_C5.1_H5.1_A5.1_F5.1_[T8C]_T5.1 (ssRNA)
RNA: B1 RNA with A29G, U35C, C37A
Kd: 0.00299 µM

B15: Ib_S2_P5E.1_K5.1_C5.1_H5.1_A5.1_[T6C]_F5.1_[T8C]_T5.1 (ssRNA)
RNA: B1 RNA with A29G, U33C, U35C, C37A
Kd: 0.0038 µM

B16: Ib_S2_P5E.1_K5.1_C5.1_H5.1_A5.1_[T6A]_F5.1_[T8C]_T5.1 (ssRNA)
RNA: B1 RNA with A29G, U33A, U35C, C37A
Kd: 0.00531 µM

B17: Ib_S2_P5E.1_K5.1_C5.1_H5.1_A5.1_[T6A]_F5.1_[T8A]_T5.1 (ssRNA)
RNA: B1 RNA with A29G, U33A, U35A, C37A
Kd: 0.00515 µM

B18: Ic_S2_P5E.1_K5.1_C5.1_H5.1_A5.1_[A7G]_F5.1_[T8G]_T5.1 (ssRNA)
RNA: B1 RNA with A29G, A34G, U35G, C37A
Kd: 0.0628 µM

B19: Ib_S2_P5E.1_K5.1_C5.1_H5.1_A5.1_[A7T]_F5.1_[T8C]_T5.1 (ssRNA)
RNA: B1 RNA with A29G, A34U, U35C, C37A
Kd: 0.00348 µM

B20: Ib_S2_P5E.1_K5.1_C5.1_H5.1_A5.1_[A7C]_F5.1_[T8A]_T5.1 (ssRNA)
RNA: B1 RNA with A29G, A34C, U35A, C37A
Kd: 0.00824 µM

B21: Ib_S2_P5E.1_K5.1_C5.1_H5.1_A5.1_[A7T]_F5.1_[T8A]_T5.1 (ssRNA)
RNA: B1 RNA with A29G, A34U, U35A, C37A
Kd: 0.00383 µM

B22: Ib_S2_P5E.1_K5.1_C5.1_H5.1_A5.1_[T5G]_F5.1_[T9C]_T5.1 (ssRNA)
RNA: B1 RNA with A29G, U32G, U36C, C37A
Kd: 0.104 µM

B23: Ib_S2_P5E.1_K5.1_C5.1_H5.1_A5.1_[T5C]_F5.1_[T9C]_T5.1 (ssRNA)
RNA: B1 RNA with A29G, U32C, U36C, C37A
Kd: 0.0169 µM

B24: Ib_S2_P5E.1_K5.1_C5.1_H5.1_A5.1_[T5G]_F5.1_[T9A]_T5.1 (ssRNA)
RNA: B1 RNA with A29G, U32G, U36A, C37A
Kd: 0.00543 µM

B25: Ia_S2_P5E.1_K5.1_C5.1_H5.1_A5.1_F5.1_[T8A]_T5.1 (ssRNA)
RNA: B1 RNA with A29G, U35A, C37A
Kd: 0.00654 µM

B26: Ib_S2_P5E.1_K5.1_C5.1_H5.1_A5.1_[T5A]_F5.1_[T9A]_T5.1 (ssRNA)
RNA: B1 RNA with A29G, U32A, U36A, C37A
Kd: 0.00252 µM

B27: Ic_S2_P5E.1_K5.1_C5.1_H5.1_A5.1_[T6A]_F5.1_[T9C]_T5.1 (ssRNA)
RNA: B1 RNA with A29G, U33A, U36C, C37A
Kd: 0.034 µM

B28: Ic_S2_P5E.1_K5.1_C5.1_H5.1_A5.1_[T6C]_F5.1_[T9A]_T5.1 (ssRNA)
RNA: B1 RNA with A29G, U33C, U36A, C37A
Kd: 0.000834 µM

B29: Ib_S2_P5E.1_K5.1_C5.1_H5.1_A5.1_[T6A]_F5.1_[T9A]_T5.1 (ssRNA)
RNA: B1 RNA with A29G, U33A, U36A, C37A
Kd: 0.00112 µM

B30: Ib_S2_P5E.1_K5.1_C5.1_H5.1_A5.1_[A7G]_F5.1_[T9A]_T5.1 (ssRNA)
RNA: B1 RNA with A29G, A34G, U36A, C37A
Kd: 0.0106 µM

B31: Ic_S2_P5E.1_K5.1_C5.1_H5.1_A5.1_[A7C]_F5.1_[T9A]_T5.1 (ssRNA)
RNA: B1 RNA with A29G, A34C, U36A, C37A
Kd: 0.00231 µM

B32: Ib_S2_P5E.1_K5.1_C5.1_H5.1_A5.1_[A7T]_F5.1_[T9A]_T5.1 (ssRNA)
RNA: B1 RNA with A29G, A34U, U36A, C37A
Kd: 0.00201 µM

B33: Ib_S2_P5E.1_K5.1_C5.1_H5.1_A5.1_[T5G]_F5.1_[A10G]_T5.1 (ssRNA)
RNA: B1 RNA with A29G, U32G, C37G
Kd: 0.0845 µM

B34: Ib_S2_P5E.1_K5.1_C5.1_H5.1_A5.1_[T5G]_F5.1_[A10C]_T5.1 (ssRNA)
RNA: B1 RNA with A29G, U32G
Kd: 0.0615 µM

B35: Ib_S2_P5E.1_K5.1_C5.1_H5.1_A5.1_[T5C]_F5.1_[A10C]_T5.1 (ssRNA)
RNA: B1 RNA with A29G, U32C
Kd: 0.00469 µM

B36: Ia_S2_P5E.1_K5.1_C5.1_H5.1_A5.1_F5.1_[A10G]_T5.1 (ssRNA)
RNA: B1 RNA with A29G, C37G
Kd: 0.00781 µM

B37: Ib_S2_P5E.1_K5.1_C5.1_H5.1_A5.1_[T5C]_F5.1_[A10T]_T5.1 (ssRNA)
RNA: B1 RNA with A29G, U32C, C37U
Kd: 0.0031 µM

B38: Ib_S2_P5E.1_K5.1_C5.1_H5.1_A5.1_[T5A]_F5.1_[A10T]_T5.1 (ssRNA)
RNA: B1 RNA with A29G, U32A, C37U
Kd: 0.00998 µM

B39: Ib_S2_P5E.1_K5.1_C5.1_H5.1_A5.1_[T6A]_F5.1_[A10G]_T5.1 (ssRNA)
RNA: B1 RNA with A29G, U33A, C37G
Kd: 0.00749 µM

B40: Ib_S2_P5E.1_K5.1_C5.1_H5.1_A5.1_[T6C]_F5.1_[A10C]_T5.1 (ssRNA)
RNA: B1 RNA with A29G, U33C
Kd: 0.00638 µM

B41: Ib_S2_P5E.1_K5.1_C5.1_H5.1_A5.1_[T6A]_F5.1_[A10C]_T5.1 (ssRNA)
RNA: B1 RNA with A29G, U33A
Kd: 0.00616 µM

B42: Ib_S2_P5E.1_K5.1_C5.1_H5.1_A5.1_[T6C]_F5.1_[A10T]_T5.1 (ssRNA)
RNA: B1 RNA with A29G, U33C, C37U
Kd: 0.00473 µM

B43: Ib_S2_P5E.1_K5.1_C5.1_H5.1_A5.1_[T6A]_F5.1_[A10T]_T5.1 (ssRNA)
RNA: B1 RNA with A29G, U33A, C37U
Kd: 0.00698 µM

B44: Ib_S2_P5E.1_K5.1_C5.1_H5.1_A5.1_[A7T]_F5.1_[A10G]_T5.1 (ssRNA)
RNA: B1 RNA with A29G, A34U, C37G
Kd: 0.0108 µM

B45: Ib_S2_P5E.1_K5.1_C5.1_H5.1_A5.1_[A7C]_F5.1_[A10C]_T5.1 (ssRNA)
RNA: B1 RNA with A29G, A34C
Kd: 0.0145 µM

B46: Ib_S2_P5E.1_K5.1_C5.1_H5.1_A5.1_[A7T]_F5.1_[A10C]_T5.1 (ssRNA)
RNA: B1 RNA with A29G, A34U
Kd: 0.013 µM

UCUCUUUCUAUAUAUCUCUU (ssRNA) [Ia_S1_P3E.1_K3.1_C3.1_H3.1_[G2C]_A3.1_F3.1_T3.1]
Kd: > 2.3 µM

B47: Ia_S2_P5E.1_K5.1_C5.1_H5.1_A5.1_F5.1_[A10C]_T5.1 (ssRNA)
RNA: B1 RNA with A29G
Kd: 0.0127 µM

B48: Ic_S2_P5E.1_K5.1_C5.1_H5.1_A5.1_[A7T]_F5.1_[A10T]_T5.1 (ssRNA)
RNA: B1 RNA with A29G, A34U, C37U
Kd: 0.0183 µM

B49: Ib_S2_P5E.1_K5.1_C5.1_H5.1_[T1G]_[G2C]_A5.1_F5.1_T5.1 (ssRNA)
RNA: B1 RNA with U28G, A29C, C37A
Kd: 1.12 µM

B50: Ib_S2_P5E.1_K5.1_C5.1_H5.1_[T1G]_[G2T]_A5.1_F5.1_T5.1 (ssRNA)
RNA: B1 RNA with U28G, A29U, C37A
Kd: 0.0391 µM

B51: Ib_S2_P5E.1_K5.1_C5.1_H5.1_[T1A]_[G2C]_A5.1_F5.1_T5.1 (ssRNA)
RNA: B1 RNA with U28A, A29C, C37A
Kd: 1.4 µM

B52: Ib_S2_P5E.1_K5.1_C5.1_H5.1_[T1A]_[G2T]_A5.1_F5.1_T5.1 (ssRNA)
RNA: B1 RNA with U28A, A29U, C37A
Kd: 1.61 µM

B53: Ib_S2_P5E.1_K5.1_C5.1_H5.1_[T1C]_[T3C]_A5.1_F5.1_T5.1 (ssRNA)
RNA: B1 RNA with U28C, A29G, U30C, C37A
Kd: > 2.3 µM

B54: Ib_S2_P5E.1_K5.1_C5.1_H5.1_[T1C]_[A4T]_A5.1_F5.1_T5.1 (ssRNA)
RNA: B1 RNA with U28C, A29G, A31U, C37A
Kd: 0.836 µM

B55: Ib_S2_P5E.1_K5.1_C5.1_H5.1_[G2C]_[A4G]_A5.1_F5.1_T5.1 (ssRNA)
RNA: B1 RNA with A29C, A31G, C37A
Kd: 0.522 µM

B56: Ib_S2_P5E.1_K5.1_C5.1_H5.1_[G2C]_[A4C]_A5.1_F5.1_T5.1 (ssRNA)
RNA: B1 RNA with A29C, A31C, C37A
Kd: > 2.3 µM

B57: Ib_S2_P5E.1_K5.1_C5.1_H5.1_[G2T]_[A4T]_A5.1_F5.1_T5.1 (ssRNA)
RNA: B1 RNA with A29U, A31U, C37A
Kd: > 2.3 µM

B58: Ia_S2_P5E.1_K5.1_C5.1_H5.1_A5.1_F5.1_[A10T]_T5.1 (ssRNA)
RNA: B1 RNA with A29G, C37U
Kd: 0.0077 µM
